Assay [1] deals with T1, human FcRn (hFcRn) (human, UniProt P55899 24-297; P16213 21-119, limits assumed).
T1 construct: hFcRn was the soluble analyte in SPR; also called FcRn analyte
Nature of the assay: SPR (Biacore 3000), antibody amine-coupled on CM5, hFcRn analyte, pH 6.0, 25 C, 1:1 model. Here is the method:
SPR measurements were performed using a Biacore 3000. […] The sensor chip surface was regenerated with a 30 sec pulse of 10 mM glycine pH 1.5 at a flow rate of […] followed by a 15 second pulse of buffer. Measurements were performed at 25° C. using HBS-P as the running buffer. The reference flow cell was activated and blocked in a mock amine coupling reaction. The data was fit to a 1:1 binding model using Biaevalution v.4.1 software.

Assay [2] deals with T1, human FcRn (hFcRn). As to the kind of experiment: SPR (Biacore 3000), antibody amine-coupled on CM5, hFcRn analyte, pH 7.5, 25 C, 1:1 model.

Numbering of substitutions follows the chain as printed.

T1 sequence (P55899 24-297 limits assumed, chain 1 of 2): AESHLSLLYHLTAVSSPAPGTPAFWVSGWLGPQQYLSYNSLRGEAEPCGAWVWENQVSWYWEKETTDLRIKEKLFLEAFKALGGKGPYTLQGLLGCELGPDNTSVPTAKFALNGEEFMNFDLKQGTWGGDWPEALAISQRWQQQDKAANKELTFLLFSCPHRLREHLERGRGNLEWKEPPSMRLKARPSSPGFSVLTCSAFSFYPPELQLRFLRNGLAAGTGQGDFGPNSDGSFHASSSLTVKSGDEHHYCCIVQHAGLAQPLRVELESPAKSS
T1 sequence (P16213 21-119 limits assumed, chain 2 of 2): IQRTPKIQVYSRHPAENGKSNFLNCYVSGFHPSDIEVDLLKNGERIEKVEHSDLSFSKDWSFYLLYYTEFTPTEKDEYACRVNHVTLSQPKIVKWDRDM

B1: 532A-X54-B03 (cys to ala mutant of DX-2504) (antibody, V domains shown)
VH: EVQLLESGGGLVQPGGSLRLSCAASGFTFSEYAMGWVRQAPGKGLEWVSSIGSSGGQTKYADSVKGRFTISRDNSKNTLYLQMNSLRAEDTAVYYCARLAIGDSYWGQGTMVTVSS
VL: QSALTQPASVSGSPGQSITISCTGTGSDVGSYNLVSWYQQHPGKAPKLMIYGDSQRPSGVSNRFSGSKSGNTASLTISGLQAEDEADYYCASYAGSGIYVFGTGTKVTVL
notes: also called 532-X54-B03; 532A-X53-B03
Turning to B1, the Kd with human FcRn (hFcRn) [1] was 1.8 nM. In the assay with human FcRn (hFcRn) [2], this molecule came in with a Kd of 2 nM and an on-rate constant (kon) of 110000 M⁻¹ s⁻¹.

B2: 532A-X53-C02 (cys to ser mutant of DX-2504) (antibody, V domains shown)
VH: B1 VH
VL: B1 VL with A91S
notes: also called C54-C02
With B2, in the assay with human FcRn (hFcRn) [1], the Kd was 1.4 nM, the koff is 0.00043 s⁻¹ and the kon worked out at 310000 M⁻¹ s⁻¹. In the assay with human FcRn (hFcRn) [2], this molecule yielded a Kd of 1.7 nM, a koff of 0.00032 s⁻¹ and a kon of 190000 M⁻¹ s⁻¹.

B3: DX-2504 anti-FcRn antibody (antibody, human IgG1, lambda)
heavy: not shown
light: QSALTQPASVSGSPGQSITISCTGTGSDVGSYNLVSWYQQHPGKAPKLMIYGDSQRPSGVSNRFSGSKSGNTASLTISGLQAEDEADYYCCSYAGSGIYVFGTGTKVTVLGQPKANPTVTLFPPSSEELQANKATLVCLISDFYPGAVTVAWKADGSPVKAGVETTKPSKQSNNKYAASSYLSLTPEQWKSHRSYSCQVTHEGSTVEKTVAPTECS
notes: It was immobilized by amine coupling in the SPR assay
Turning to B3, in the assay with human FcRn (hFcRn) [1], the Kd is 1.5 nM, the koff turned out to be 0.00035 s⁻¹ and the association rate constant (kon) was 240000 M⁻¹ s⁻¹. Also, in the assay with human FcRn (hFcRn) [2], binding was characterised by a dissociation constant (Kd) of 1.9 nM, the koff was 0.00028 s⁻¹ and the kon was found to be 150000 M⁻¹ s⁻¹.

The record behind these values is patent US20160304608A1 (published 2016).
